From patent publication US20110281365A1 (Stanford University, published 2011)

B1: unlabeled wild type IgE-Fc (human IgE-Fc Cε3-Cε4) (other)
chain: ADPCADSNPRGVSAYLSRPSPFDLFIRKSPTITCLVVDLAPSKGTVNLTWSRASGKPVNHSTRKEEKQRNGTLTVTSTLPVGTRDWIEGETYQCRVTHPHLPRALMRSTTKTSGPRAAPEVYAFATPEWPGSRDKRTLACLIQNFMPEDISVQWLHNEVQLPDARHSTTQPRKTKGSGFFVFSRLEVTRAEWEQKDEFICRAVHEAASPSQTVQRAVSVNPGK
notes: also called unlabeled IgE-Fc; unlabeled IgE
B2: Alexa Fluor 488-labeled 367C IgE-Fc (human IgE-Fc Cε3-Cε4 C328A/K367C double mutant) (other)
chain: ADPAADSNPRGVSAYLSRPSPFDLFIRKSPTITCLVVDLAPSCGTVNLTWSRASGKPVNHSTRKEEKQRNGTLTVTSTLPVGTRDWIEGETYQCRVTHPHLPRALMRSTTKTSGPRAAPEVYAFATPEWPGSRDKRTLACLIQNFMPEDISVQWLHNEVQLPDARHSTTQPRKTKGSGFFVFSRLEVTRAEWEQKDEFICRAVHEAASPSQTVQRAVSVNPGKAADDDDKRYLDPAFLYKVRMNEDLGKPIPNPLLGLDSTRTGHHHHHH
modifications: Alexa Fluor 488 maleimide dye on Cys 367 (Dorrington and Bennich numbering)
notes: Expressed in insect cells; also called labeled IgE-Fc

Legend:
[1] = target: T1, human FcεRIα protein (alpha chain of the high affinity IgE receptor) (human, UniProt P12319 26-201); test: fluorescence quenching competition assay; competitor of 488-labeled 367C IgE-Fc for FcεRIα
T1 construct: Purified soluble protein used in solution; The embodiments and claims speak of the extracellular region 1-176
T1 sequence (looked up): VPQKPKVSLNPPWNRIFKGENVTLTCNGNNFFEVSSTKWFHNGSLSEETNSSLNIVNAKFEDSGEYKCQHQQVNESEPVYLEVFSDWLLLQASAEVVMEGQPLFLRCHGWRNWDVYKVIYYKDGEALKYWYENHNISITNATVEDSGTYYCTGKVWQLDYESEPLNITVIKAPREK
Method: Initial experiments were conducted with unlabeled IgE-Fc as the competitor.
(§1) Fluorescence Measurement. Samples were monitored by fluorescence using a Synergy 4 Fluorometer (BioTek) in black 96-well Costar fluorescence plates (Corning). […] The read-type for typical measurements was Endpoint. All measurements were recorded in duplicate.

[2] = target: T1, human FcεRIα protein (alpha chain of …); test: fluorescence quenching receptor binding titration, 96-well plate
Method: Binding buffer conditions were optimized to improve reproducibility of the binding assay in a 96-well plate format.
as §1

Binder | EC50 [1] [nM] | Kd [2] [nM]
B1 | ~75 | –
B2 | – | ~22
